Results from patent US20040248211A1, “ICAM-related protein” (priority 1992, published 2004).

T1: ICAM-R (Homo sapiens, UniProt P32942)
T1 construct: express the full length ICAM-1 and ICAM-R proteins, respectively; expressed in transfected cells; host or cells: COS cells, DEAE-dextran, plasmid pcDNA1AmpICAM-R
T1 sequence (P32942 30-547): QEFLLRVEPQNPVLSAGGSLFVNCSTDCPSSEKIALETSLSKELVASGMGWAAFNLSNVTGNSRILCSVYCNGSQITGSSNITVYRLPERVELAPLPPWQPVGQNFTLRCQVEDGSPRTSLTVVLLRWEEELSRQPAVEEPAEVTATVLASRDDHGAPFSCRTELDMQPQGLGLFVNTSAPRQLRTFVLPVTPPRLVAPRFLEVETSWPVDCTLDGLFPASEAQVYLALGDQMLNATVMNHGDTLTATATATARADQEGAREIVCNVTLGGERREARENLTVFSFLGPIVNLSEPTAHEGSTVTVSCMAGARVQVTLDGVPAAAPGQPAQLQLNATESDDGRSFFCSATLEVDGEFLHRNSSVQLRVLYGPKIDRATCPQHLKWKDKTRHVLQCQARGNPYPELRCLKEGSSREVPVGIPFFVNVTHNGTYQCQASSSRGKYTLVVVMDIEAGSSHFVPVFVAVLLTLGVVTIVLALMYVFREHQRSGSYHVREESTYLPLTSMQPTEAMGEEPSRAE


What was measured:
[1] = system: CD4+ T cells with allogeneic epidermal cells; assay: Langerhans cell alloantigen presentation to CD4+ T cells; type: cell-based, human; conditions: 50 μg antibody
Protocol: Blocking experiments were performed to determine whether the observed ICAM-R expression on Lcs was functionally important in antigen presentation. CD4^+ T cells were prepared from peripheral blood and 10^5 CD4^+ T cells were combined with 4×10^4 epidermal cells harvested from keratome biopsies of normal skin of an individual allogenic to the T cell donor. Proliferation was measured by ^3H thymidine uptake. Alloantigen presentation was unaffected by addition of 50 μg IgG1 isotype control. […] Inhibition was 73% of that produced by addition of anti-LFA-1 (anti-CD11a) antibody.

ICAM-R = molecular target: T1, ICAM-R; assay: FACS binding to COS cell transfectants; conditions: antibody 5.0 ug/ml
Protocol: (§1) For the anti-ICAM-R monoclonal antibody binding assay, COS cells transfected with constructs encoding the ICAM-R chimeric proteins or control constructs were removed from the plates by EDTA treatment and aliquoted at 2.5×10^5 cells per well in a 96-well round bottom plate. Cells were washed 3 times with ice cold washing buffer (PBS containing 1% BSA and 0.05% sodium azide). Anti-ICAM-R monoclonal antibody was applied at 5.0 ug/ml in 50 ul final volume and incubated on ice for 30 minutes. Cells were then washed three times with cold washing buffer and incubated with the FITC labeled secondary antibody (sheep anti-mouse IgG F(ab′)2) at a 1:100 dilution on ice for 30 minutes in dark in 50 ul final volume. After the incubation, cells were washed again for three times in the ice cold washing buffer and resuspended in 200 ul of 1% paraformaldehyde. The samples were analyzed on a Becton-Dickinson FACScan instrument. Results of the assay are given below in Table 5 as percent positive COS cell transfectants, wherein MOPC 21 (IgG1) and UPC 10 (IgG2a) are isotype matched controls, 18E3D is an ICAM-1 specific monoclonal antibody and ICR-1.1 to ICR-9.2 are ICAM-R specific monoclonal antibodies. The reactivities of monoclonal antibodies ICR-1.1 through ICR-9.2 were assayed in a different experiment than monoclonal antibodies ICR-12.1 through ICR-17.1.

ICAM-1 = molecular target: T2, ICAM-1 (Homo sapiens, UniProt P05362); assay: FACS binding to COS cell transfectants; conditions: antibody 5.0 ug/ml
T2 construct: express the full length ICAM-1 and ICAM-R proteins, respectively; expressed in transfected cells; host or cells: COS cells, DEAE-dextran, plasmid pcDNA1AmpICAM-1
Protocol: as §1

[2] = system: Fraction C cells (quiescent CD3 positive PBL); assay: IL-2 production by T lymphocytes after prepulse on antibody; type: cell-based, human; conditions: 18 hours prepulse on immobilized antibody, then anti-CD3 OKT3
Protocol: Human PBL were obtained by Ficoll-Hypaque centrifugation of whole peripheral blood. Adherent cells were depleted by incubation on plastic and nonadherent cells were subjected to discontinuous centrifugation on Percoll gradients to further separate subsets of lymphocytes into medium buoyant density (fraction B) and high buoyant density (fraction C) cell populations. Prior to cell addition, wells were coated with monoclonal antibodies by addition of 0.1 ml each antibody at 5 ug/ml in PBS per microtiter well. Following antibody addition, all wells were incubated overnight at 4 degrees and each well was washed free of unbound antibody by PBS rinsing prior to addition of cells. Each cell fraction was then incubated for 18 hours on either ICR-1.1, ICR-4.2 or control antibodies to human major Histocompatibility Complex Class I (MHC Class I). For these experiments 2×10^5 cells per well were added in a volume of 0.2 ml RPMI-1640 containing 10% FCS to individual wells of a 96 well flat bottom microtiter plate (Costar, Cambridge, Mass.). After 18-20 hours incubation at 37° C., the cells were collected from the microtiter wells and washed twice in RPMI-1640 media containing 10% FCS and adjusted to 1×10^6 per ml in RPMI-1640 containing 10% FCS. […]

T2 sequence (P05362 28-532): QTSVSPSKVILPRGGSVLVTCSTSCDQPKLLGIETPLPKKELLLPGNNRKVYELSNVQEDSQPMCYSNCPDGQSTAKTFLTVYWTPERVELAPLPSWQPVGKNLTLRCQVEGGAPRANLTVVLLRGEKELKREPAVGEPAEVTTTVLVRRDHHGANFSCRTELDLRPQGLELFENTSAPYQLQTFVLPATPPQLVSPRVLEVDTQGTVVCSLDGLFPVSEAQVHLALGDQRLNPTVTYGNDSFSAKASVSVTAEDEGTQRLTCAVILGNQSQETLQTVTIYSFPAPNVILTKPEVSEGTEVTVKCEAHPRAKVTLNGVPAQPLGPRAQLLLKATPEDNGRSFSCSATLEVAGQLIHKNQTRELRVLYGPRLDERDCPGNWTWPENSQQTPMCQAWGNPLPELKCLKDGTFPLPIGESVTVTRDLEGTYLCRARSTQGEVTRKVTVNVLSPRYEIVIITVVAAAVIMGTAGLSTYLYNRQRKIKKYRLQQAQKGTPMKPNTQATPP

Molecule	inhibition relative to that produced by anti-LFA-1 (anti-CD11a) antibody [1] [%]	reduction in Lcs alloantigen-driven proliferative response of T cells [1] [%]	percent positive COS cell transfectants, ICAM-R (ICAM-R) [%]	percent positive COS cell transfectants, ICAM-1 (ICAM-1) [%]	IL-2 produced relative to prepulse on negative control antibodies [2]
ICR-8.1: anti-ICAM-R monoclonal antibody, IgG1, domain 1, ATCC HB 11232 (antibody, V domains shown) VH: EIQLQQTGPELVKPGASVKISCKASGYSFTDCIILWVKQSHGKGLEWIGKINPYFGTTTYNLKFKGKATLTVDKSSSTAHMQLNSLTSEDSAVYYCARKEAYPDAMDYWGQGTSVTVSS VL: DAVMTQTPLSLPVSLGDQASISCRSSQSLVHSNGDTYLHWYLQKPGQSPQLLIYKVSNRFSGVPDRFSGSGSGTDFTLKLSRVEAEDLGVYFCSQSTHVPYTFGGGTKLEIK	73	47			
ICR-1.1: anti-ICAM-R monoclonal antibody, IgG2a, domain 1, ATCC HB 11053 (antibody, V domains shown) VH: QVQLQQSGAELAKPGASVKMSCKASGYTFTVYWMHWVKQRPGQGLEWIGYINPNTDYTEYNQRFQDKATLTADKSSSTAYMQLSSLTSEDSAVYYCARWGGNSYGLDYWGQGTSVTVSS VL: QIVLTQSPALMSASPGEKVTMTCSASSSVSYIYWYQQKPRSSPKPWIYLTSNLASGVPARFSGSGSGASYSLTISIMEAEDAATYYCQQWKSIPLTFGAGTKLELK			54.33	2.43	less than 50%
